Assay results published in the DeepSol protein solubility set.

Assay: soluble on expression in E. coli; label from the status in PepcDB or PDB records

Sequence	soluble on expression in E. coli
MTATWSVNKKIFLQNAITVKNNQPLMAVVKNNAYHYDLEFAVTQFIHAGIDTFSTTSLREAIQIRQLAPDATIFLMNAVYEFDLVREHQIHMTLPSLTYYYNHKNDLAGIHVHLEFENLLHRSGFKDLNEIKEVLKDHHHNQNAKMIISGLWTHFGYADEFDVSDYNVERSQWMEIVEALLSEGYQFDLIHAQNSASFYREGQILLPHHTHARVGIALYGSRPYSSLNQHDIVQSLTLKAHVIQVREVQAGDYCGYSFAFEVTKNNTKLAVVDIGYGDGILRTRAKHEALINGKRYPIRALMMSHMFVEVDGNVHAQDEVILYNNDIRIDEYTFKGVGANSEQLSAMNHDSLKKEYISNDC	not soluble
MTCWLRGVTATFGRPAEWPGYLSHLCGRSAAMDLGPMRKSYRGDREAFEETHLTSLDPVKQFAAWFEEAVQCPDIGEANAMCLATCTRDGKPSARMLLLKGFGKDGFRFFTNFESRKGKELDSNPFASLVFYWEPLNRQVRVEGPVKKLPEEEAECYFHSRPKSSQIGAVVSHQSSVIPDREYLRKKNEELEQLYQDQEVPKPKSWGGYVLYPQVMEFWQGQTNRLHDRIVFRRGLPTGDSPLGPMTHRGEEDWLYERLAP	soluble
MTDEERIELQQNNPLHGLKLETMLQELVDFYGWDILDTAMRFNCFNTKPSIASSVKYLKKTEWAREKLENFYLYRFKRMPRASEEEYNLPPRARTFPHGLEPKEPMPLTVDSILNSQAKAASSFKKRSSRGRPTRRLEHHHHHH	soluble
MTDIKMIALGGVREYGKNFYLVEINDSMFILDAGLKYPENEQLGVDLVIPNLDYVIENKGKVQGIFLSHGHADAIGALPYLLAEVSAPVFGSELTIELAKLFVKSNNSTKKFNNFHVVDSDTEIEFKDGLVSFFRTTHSIPESMGIVIGTDKGNIIYTGDFKFDQAAREGYQTDLLRLAEIGKEGVLALLSDSVNATSNDQIASESEVGEEMDSVISDADGRVIVAAVASNLVRIQQVFDSATAHGRRVVLTGTDAENIVRTALRLEKLMITDERLLIKPKDMSKFEDHELIILEAGRMGEPINSLQKMAAGRHRYVQIKEGDLVYIVTTPSTAKEAMVARVENLIYKAGGSVKLITQNLRVSGHANGRDLQLLMNLLKPQYLFPVQGEYRDLAAHAKLAEEVGIFPENIHILKRGDIMVLNDEGFLHEGGVPASDVMIDGNAIGDVGNIVLRDRKVLSEDGIFIVAITVSKKEKRIISKAKVNTRGFVYVKKSHDILRESAELVNTTVGNYLKKDTFDWGELKGNVRDDLSKFLFEQTKRRPAILPVVMEVR	not soluble
MTDLHPVKEETFNITAMNNIDPKGFHRDVDTYSETEFGLYMARGANHPRFGYLESWLLPEINLRANIFHFRDGIDEHQDFYFDIAEISHDGHTWHTRDLYVDLISVVGEPVRVDDTDELAAATSAGLITAEDAEKAIDATLLAVDGITRHNDDPMAWLAAMGYPLTWAKNITLKEAE	soluble
MTDLTGILYIVATPIGNLQDITQRALETFAQVDLIAAEDTRHSGLLLSHYGIKKPFFALHDHNEQEKAHILVEKLKQGSNIALISDAGTPLISDPGFHLVRQCREAGIRVVPLPGACAAITALCASGIASDRFCFEGFLPAKSKARKDKLENIAEEDRTLIFYESTHRILDTLEDMQAVLGEERYIVLAREMTKTWETITGNTIKNLREWLLEDPNRTKGEMVLIVEGKPKSDNNDEISPQAVKALELIAEELPLKKAAAIVAELYGYKKNALYQFGLAHLEKLEHHHHHH	soluble
MTDQPDVQRVQTASRDNSTVIDLREYKTNKDPLPVTFHRRELDAILRIYGRMVGEGEWRDYAIDHLKEKAVFSVFKRSGEMPLYRIEKNPKLATKQGAYCVVNVDGRILKRGHELPQVLKVFDKVLKLIE	not soluble
MTDRLSILVPIRVLEGESVPEGVPELLAHAHVVLLGYHVIPEQTAPGQARMQFEDRATERLDEYQEMFEDAGATVERRLVFTHNGQKTIDRMIAEHDCMAVLVPNATGPVEDVLVPVRGAIGVDRLARVVASVFGEMDADVTLYHVADEDTTDDDIQTLLGGLADRLAEFGMDPSTIETRIDRDQNPLDAIVDVSDGFDTVVMGETDPSLATFVFGMPADQVANRFLGPVFVAQRERPSADEDE	not soluble
MTDYDVLRVFCAPNGGYGNELGVVRDGSVLPEPERRQELAAKLGFSETVFVDDPERGVVDIYTPTLRLPFAGHPCVGTAWLLDVPELVTRAGVVGARLDGEFSWIEARPEWAPPRTLRQYAAVAEVDDLAVPPKGEWVYAWAWEDEAAGRVRARAFPGRDDGIDEDEATGAAALLLTGRLGRALNITQGVGSQILTAPQPEGWVEIGGRVRLERLEHHHHHH	not soluble
MTEAMKITLSTQPADARWGEKATYSINNDGITLHLNGADDLGLIQRAARKIDGLGIKHVQLSGEGWDADRCWAFWQGYKAPKGTRKVVWPDLDDAQRQELDNRLMIIDWVRDTINAPAEELGPSQLAQRAVDLISNVAGDRVTYRITKGEDLREQGYMGLHTVGRGSERSPVLLALDYNPTGDKEAPVYACLVGKGITFDSGGYSIKQTAFMDSMKSDMGGAATVTGALAFAITRGLNKRVKLFLCCADNLISGNAFKLGDIITYRNGKKVEVMNTDAEGRLVLADGLIDASAQKPEMIIDAATLTGAAKTALGNDYHALFSFDDALAGRLLASAAQENEPFWRLPLAEFHRSQLPSNFAELNNTGSAAYPAGASTAAGFLSHFVENYQQGWLHIDCSATYRKAPVEQWSAGATGLGVRTIANLLTA	soluble
MTEEFYIGTYTKRISRGIYRVSVDTTTPKLMDCEWLASAGSPTYIAKSNAKRLYVINKKETDGQTHGGLIIYDMSEDKPRAIQQLLDLGSSPAYVAVDEDRQLVYTANYHTAAVDVYAINPDGTLKRTDQVIDQDPVGPAPEQADGPHPHFADLTPDNRLVVCDLGSDRVYVYDVSATGKLSAVSHLDLPAGYGPRHIVFDAKKGVAYLVGELSSNVATLSYDTATGTFTVKTIVSTIPDDWTAHNGAAAIRLSADGKFVYVSNRGNNSLAVFASDEAGQLTLVQRISTEGDFPRDFNWTANQRLVLVVNQNSDNASLFERDAQSGKLTLVQKDFMVPEGVSVLPAKLEHHHHHH	soluble
MTEGKRLQQMELPQMKSIWIDEDQEMEKLYGFQVRQRFMNGPSTDSDEDADEDLGIVLVDSKKLALPNKNNIKLPPLPNYMTINPNINSNHKSLTNKKKNFLGMFKKKDLLSRRHGSAKTAKQSSISTPFDFHHISHANGKREDNPLESHEEKHDVESLVKFTSLAPQPRPDSNVSSKYSNVVMNDSSRIVSSSTIATTMDSHHDGNETNNTPNGNKQLDSPTDLEMTLEDLRNYTFPSVLGDSVSEKTNPSSPSVSSFSGKFKPRELSALHTPELGNCFNVDQSLNSPGNRISVDDVLKFYYQCSETSTPRNT	soluble
MTEGLAVELAGLRSFSIVMPAYNVVTQRGERIFRETLESIAASCRYLQQHFPYTPEGELILISDGSTDRTCDVAMAGWPNAVPLQLVGLPTNVGIAAARNIGVRLAKGEVIFFCDADDLYRPEHLFLALSVLNQPLPEPYAPAYFGAVRTGVYCRDRLHPYWHKSLEQTLVLNLAVRREVHEFIGGFPEDEVFRQFRYGAEDVAYAYWLHQFCHTARLEQRTVEYRRFPNSVFDRQLKKFQAAPGTVADDLDEGDRQQEAQIRQIMATRLQELQAKAAQGVALEHHHHHH	not soluble
MTEKKFIQDPWAKMTTRNGLAGDEVISALQKSIRRGKEKDACEFAYEMYITSPQFEEKLWRRLLAISVEDIGMGNPIAALMINNLNMMRKEFQYNESDRAMFFFHAIRYLCGSEKDRSSDLLKNIVIKSFAMGYVPEIPDIALDKHTTRGQEMGRGSEHFLHEASKVIPQAKVENDYKEQYEEIIKKYDPNHVVPSTFVFNPWQVLEHHHHHH	not soluble
MTENAEKFLWGVATSAYQIEGATQEDGRGPSIWDAFAQRPGAIRDGSTGEPACDHYRRYEEDIALMQSLGVRAYRFSVAWPRILPEGRGRINPKGLAFYDRLVDRLLASGITPFLTLYHWDLPLALEERGGWRSRETAFAFAEYAEAVARALADRVPFFATLNEPWCSAFLGHWTGEHAPGLRNLEAALRAAHHLLLGHGLAVEALRAAGARRVGIVLNFAPAYGEDPEAVDVADRYHNRFFLDPILGKGYPESPFRDPPPVPILSRDLELVARPLDFLGVNYYAPVRVAPGTGTLPVRYLPPEGPATAMGWEVYPEGLYHLLKRLGREVPWPLYVTENGAAYPDLWTGEAVVEDPERVAYLEAHVEAALRAREEGVDLRGYFVWSLMDNFEWAFGYTRRFGLYYVDFPSQRRIPKRSALWYRERIARAQT	soluble
MTESFAELFEASQANLAKLKPGSIVTGTVVEVRGDVVVINAGLKSEGIVPIEQFRNDAGEIDVGVGDQVKVALDSIENGFGETVLSREKAKRAMVWDELEEALEKNETITGRISGKVKGGFTVDIKDVRAFLPGSLVDVRPVRDPAYLEGKELEFKLIKLDRKRNNVVVSRRAVVESEHSEEREQLMDKLQEGAILKGVVKNLTDYGAFVDLGGIDGLLHITDMAWKRVRHPSEVVNVGDELDVRVLKFDRERNRVSLGLKQLGEDPWDNIARRYPANSRVFGKVSNVTDYGAFVEIEPGVEGLVHVSEMDWTNKNVNPSKVVQVGDEVEVMVLDVDEERRRISLGMKQVAANPWETFAATHKKNDKVSGQIKSITDFGIFIGLDGGIDGLVHLSDISWNTTGEDVVRNYKKGDTLEAVVLAVDPERERISLGVKQLEQDPFGQYMASNPKGSKVEGVVREVDAKGATIDLADGIEGYVAARDIANERVDDATQHLKVGDKIEAKFVGMDRKGRTLQLSIKAKDDAEMRETLEDYQSASASGGMTQLGALLRAQLNNNKSELEHHHHHH	not soluble
MTESSLDLGVIGNCSFGALVDRQARVVWSCLPAFDGDPAFCSLLSPKGEGGDFAVELEDFESSEQHYLPNTAVLRTVLRDSKGGEVEVIDFAPRWRNNGRFYRPVSIIRQIRPLAGNPRIVVRARPLADWGGRLEHHHHHH	not soluble
MTESTSLDELFKDRYSQNDERYKKMSETGFEPVIVVHPWEPRRNNNYRNRGNFGGGRGGGYQHRDNSNRGGWVPRGGGQRGGYRGGWQDRGGHRGGGGWQDRGGQRQPYRGGDRRRQYND	soluble
MTETIKCIGCGVEIQTEDKNEVGYAPASSLEKEQVICQRCFRLKHYNEIQDVSLTDDDFLRILNGIGKSDALVVKIVDIFDFNGSWLPGLHRFVGNNKVLLVGNKADLIPKSVKHDKVKHWMRYSAKQLGLKPEDVFLISAAKGQGIAELADAIEYYRGGKDVYVVGCTNVGKSTFINRMIKEFSDETENVITTSHFPGTTLDLIDIPLDEESSLYDTPGIINHHQMAHYVGKQSLKLITPTKEIKPMVFQLNEEQTLFFSGLARFDYVSGGRRAFTCHFSNRLTIHRTKLEKADELYKNHAGDLLSPPTPEELENMPELVKYEFNIREPKTDVVFSGLGWVTVNEPGAKIVAHVPKGVSVSLRKSLILEHHHHHH	not soluble
MTETRKKPDPIDVYVGTRIRLRRNILGLTQEKLGEKLGITFQQIQKYEKGTNRIGASRLQAIAEIMDVPVSYFFDKGVGTQQVEGFAESDNDFMDFCSSSEGIQLMRAFTNISDSKVRRKIIDLAKALSEEEDLTNKL	not soluble
MTETTYENLTRRIDRISAEMREISEENGLRILSLLESQTKSIKDELSRLLWIELPELNESHKIEAVSKSTTGMFFAPGIFEMDAMRKAFFKRQAKHFFENEAEQQAYIEHAEKEYLEATVTLKDILFNSKNGTQKANKSCLIEKFEEAMQ	not soluble
